B1: CPEB3 Ribozyme (parent)
chain: GGGGGCCACAGCAGAAGCGUUCACGUCGCGGCCCCUGUCAGAUUCUGGUGAAUCUGCGAAUUCUGCUGU

This data set covers variants of B1. Put plainly: self-cleavage, relative activity (ratio to wild type); higher = more cleavage; co-transcriptional.
On to A10U U53A, for which the self-cleavage was found to be 0.981.
Consider A10U U53G, for which the self-cleavage came out at 0.902.
Take G11A C66U: the self-cleavage amounted to 0.967.
For G11A G47C, the self-cleavage worked out at 0.895.
With G11A G47U, the self-cleavage was determined as 0.937.
In the case of G11A G47A, the self-cleavage is 0.942.
On to G11A C12G, for which the self-cleavage came out at 0.788.
As to G11A C12A, the self-cleavage was determined as 0.74.
Consider A10U U64C, for which the self-cleavage worked out at 0.778.
In the case of G11A G14A, the self-cleavage was 0.119.
On to G11A G14C, for which the self-cleavage stood at 0.267.
As to G11A A13U, the self-cleavage was found to be 0.186.
With A10G U44A, the self-cleavage amounted to 0.702.
As for A10G U44C, the self-cleavage came out at 0.498.
Take A10G A59C: the self-cleavage was 0.517.
As to A10G A59U, the self-cleavage came out at 0.647.
In the case of G11A C63G, the self-cleavage amounted to 0.493.
To G11A C63A belongs 0.75.
In the case of A10U C18G, the self-cleavage stood at 0.182.
Turning to A10U A59U, the self-cleavage came to 0.879.
With A10U A59C, the self-cleavage is 0.778.
Take G11A A60U: the self-cleavage amounted to 0.323.
Turning to G11A A60G, the self-cleavage was 0.434.
As to A10U U26A, the self-cleavage is 0.917.
Consider A10U U26C, for which the self-cleavage worked out at 0.986.
As to A10G U64A, the self-cleavage was 0.33.
Turning to A10G U64C, the self-cleavage came to 0.406.
In the case of A10G C22U it was 0.23.
For A10G C22G, the self-cleavage is 0.145.
As to A10G G58C, the self-cleavage is 0.888.
Take A10G G58A: the self-cleavage was 0.969.
Regarding A10U G47C, the self-cleavage amounted to 0.991.
Consider A10U G47A, for which the self-cleavage is 1.03.
In the case of A10U G47U, the self-cleavage came out at 0.962.
In the case of G11A G58C it was 0.876.
As for G11A G58A, the self-cleavage is 0.842.
With A10C U38C, the self-cleavage is 1.
A10C G68U: the self-cleavage was determined as 1.03.
As for A10C G68C, the self-cleavage stood at 1.04.
As to A10C U53C, the self-cleavage is 0.863.
With A10C U53A, the self-cleavage was found to be 0.976.
As to A10U G68C, the self-cleavage turned out to be 1.05.
To A10C U20A belongs 0.205; to A10C U20G, 0.0821.
Regarding A10C U20C, the self-cleavage amounted to 0.286.
With A10G U67A, the self-cleavage was found to be 0.847.
Regarding A10G U67G, the self-cleavage was determined as 0.757.
In the case of A10G G31A it was 0.953; in that of A10G G31U, 0.868; in that of G11A G25C, 0.103.
As for G11A G25U, the self-cleavage was found to be 0.176.
On to G11A C54U, for which the self-cleavage turned out to be 0.886.
In the case of G11A C54G it was 0.426.
In the case of G11A C54A, the self-cleavage was 0.368.
Take A10C U21A: the self-cleavage was 0.959.
To A10G G47A belongs 0.986; to A10G G47C, 0.927.
In the case of G11A C39U it was 0.609; in that of G11A C39G, 0.646; in that of G11A C39A, 0.405.
As for A10G G50C, the self-cleavage was 0.818.
For A10G G50U, the self-cleavage came to 0.87.
For A10C U26A, the self-cleavage stood at 0.943.
As for A10C U26C, the self-cleavage is 1.02.
For the variant A10C U26G, the self-cleavage was found to be 0.885.
As for A10U G30A, the self-cleavage worked out at 0.922.
In the case of A10U G30C, the self-cleavage came to 0.992.
As for A10G A23G, the self-cleavage came out at 0.832.
For the variant A10G A23U, the self-cleavage was determined as 0.748.
Take G11A C45G: the self-cleavage turned out to be 0.859.
Consider A10U C66U, for which the self-cleavage turned out to be 1.01.
For A10U C27G, the self-cleavage was found to be 0.17.
To A10U C33G belongs 0.922.
Consider A10U C33A, for which the self-cleavage was 0.977.
Regarding A10U C33U, the self-cleavage is 0.971.
For A10G A15C, the self-cleavage stood at 0.254.
As to A10G A15G, the self-cleavage came out at 0.786.
Take A10G A15U: the self-cleavage came out at 0.253.
To A10U A16C belongs 0.281.
For G11A C18A, the self-cleavage worked out at 0.107.
Regarding G11A C18U, the self-cleavage came out at 0.278.
Turning to G11A C18G, the self-cleavage worked out at 0.106.
In the case of A10G C33A it was 0.926; in that of A10G G41U, 0.466; in that of A10G A52U, 0.834.
As for A10G A52C, the self-cleavage came to 0.776.
Turning to A10C U62C, the self-cleavage turned out to be 0.72.
With A10C U62G, the self-cleavage was determined as 0.772.
Consider A10C U55A, for which the self-cleavage is 0.824.
In the case of A10C U55C, the self-cleavage stood at 0.911.
For the variant A10U C12G, the self-cleavage is 0.859.
For G11A A16G, the self-cleavage is 0.575.
For G11A A16U, the self-cleavage worked out at 0.352.
In the case of G11A A16C, the self-cleavage was determined as 0.0873.
Turning to A10G G37C, the self-cleavage is 0.175.
A10C U46A: the self-cleavage came to 1.03.
For the variant A10C U46G, the self-cleavage was 0.953.
Take A10G U21G: the self-cleavage came to 0.39.
On to A10G U21C, for which the self-cleavage stood at 0.619.
For the variant A10G U21A, the self-cleavage was 0.83.
Consider G11A G31C, for which the self-cleavage is 0.155.
In the case of G11A G31U it was 0.599.
Turning to G11A C34U, the self-cleavage was 0.93.
Take G11A C22A: the self-cleavage was found to be 0.127.
To G11A C22U belongs 0.191; to A10G G65C, 0.288.
Consider A10G G17U, for which the self-cleavage amounted to 0.106.
Regarding A10G G17A, the self-cleavage was 0.132.
With A10U A60C, the self-cleavage came out at 0.384.
Consider A10U A60U, for which the self-cleavage was 0.58.
In the case of A10U G65C it was 0.627; in that of A10U A40U, 0.911; in that of A10U A40C, 0.516.
On to A10G A16C, for which the self-cleavage came to 0.145.
For A10G A16G, the self-cleavage amounted to 0.894.
A10G A16U: the self-cleavage was found to be 0.452.
With A10G C27A, the self-cleavage came out at 0.857.
Turning to A10G C27G, the self-cleavage was determined as 0.199.
With A10C U69C, the self-cleavage was determined as 1.05.
With A10C U69G, the self-cleavage amounted to 1.05.
Regarding A10C U69A, the self-cleavage stood at 1.06.
To A10U U55A belongs 0.888; to A10U U55G, 0.888; to A10G A42G, 0.636.
As for A10G A42U, the self-cleavage was found to be 0.78.
As to A10G A40C, the self-cleavage stood at 0.201.
For the variant A10G A40G, the self-cleavage came out at 0.728.
For the variant A10G U43G, the self-cleavage worked out at 0.344.
On to A10G U43C, for which the self-cleavage was determined as 0.651.
On to A10G U43A, for which the self-cleavage was 0.455.
As for A10U G50C, the self-cleavage was found to be 1.
Regarding A10U G50A, the self-cleavage came out at 0.978.
In the case of A10U U21C, the self-cleavage came out at 0.912.
Take A10U U21G: the self-cleavage came out at 0.581.
Turning to A10U U21A, the self-cleavage came to 1.
For G11A, the self-cleavage was determined as 0.932.
Turning to A10G G48C, the self-cleavage came to 0.968.
As to A10G G48A, the self-cleavage amounted to 0.898.
As for A10G G48U, the self-cleavage amounted to 1.
Regarding A10U C24G, the self-cleavage was determined as 0.569.
Consider A10U C24A, for which the self-cleavage stood at 0.796.
To A10U C24U belongs 0.82.
In the case of A10U G19A it was 0.15; in that of A10U G19C, 0.119; in that of A10U G19U, 0.589.
In the case of A10U A51C it was 0.962; in that of G11A A40C, 0.14.
As to A10U C22G, the self-cleavage stood at 0.174.
For the variant A10U C22U, the self-cleavage came out at 0.436.
In the case of A10G G30C it was 0.94; in that of A10G U49C, 0.99; in that of A10G U49G, 0.907.
To A10G U49A belongs 0.932; to A10G A51C, 0.73; to A10G A51U, 0.825.
To A10G A51G belongs 0.857.
For A10U C57U, the self-cleavage came to 0.369.
On to A10U C57G, for which the self-cleavage came out at 0.307.
In the case of G11A C32G, the self-cleavage amounted to 0.293.
For G11A C32A, the self-cleavage is 0.816.
For the variant A10U C63G, the self-cleavage is 0.591.
To A10U C63A belongs 0.825; to G11A C35A, 0.242; to G11A C35U, 0.861.
Regarding G11A A51G, the self-cleavage is 0.865.
G11A A51U: the self-cleavage came to 0.847.
In the case of A10G A13C it was 0.182.

Source of the values: the RNAGym collection of RNA variant scans (doi:10.7554/elife.80360).
